Measurements as given in the DeepSol protein solubility set.

Assay: soluble on expression in E. coli; label from the status in PepcDB or PDB records

Sequence	soluble on expression in E. coli
RDHRKIGKQLDLYHMQEEAPGMVFWHNDGWTIFRELEVFVRSKLKEYQYQEVKGPFMMDRVLWEKTGHWDNYKDAMFTTSSENREYCIKPMNCPGHVQIFNQGLKSYRDLPLRMAEFGSCHRNEPSGSLHGLMRVRGFTQDDAHIFCTEEQIRDEVNGCIRLVYDMYSTFGFEKIVVKLSTRPEKRIGSDEMWDRAEADLAVALEENNIPFEYQLGEGAFYGPKIEFTLYDCLDRAWQCGTVQLDFSLPSRLSASYVGEDNERKVPVMIHRAILGSMERFIGILTEEFAGFFPTWLAPVQVVIMNITDSQSEYVNELTQKLSNAGIRVKADLRNEKIGFKIREHTLRRVPYMLVCGDKEVESGKVAVRTRRGKDLGSMDVNEVIEKLQQEIRSRSLKQLEE	soluble
MTIEGGEQEVNVSSGGAWQSSIHCDWMTLSPSSGGIGITKVRIKVKKNTSGLPRNGRIAIISGKEEKGITVMQSSIEGEEDYLRLLNLTIDGVTTAVDYVNNSYYLPIDMDAVQPAKVKVEFGGIGVDFIKIGDKKIKSGENIALSLNPGQNIEMEAGNNTIDKIRSCRLIVTGVPVIEISAPEGIEDENKRPCDIVLTDPKRRTNNSVLRFESYAGIEFRGAGALRYAKKSFSFKLKNRQTNENQDAKLLGLREDQSWILDAMWLDCSKMRNRVCFDLWNDFNTLYYSNTEPEAVNATHGYPVEMILDGAYHGLYILSDRIDRKQLKMKKKGGYLYKGKEWTDECKLQGINTPYSNSKQAWQGFESDYPDEVGEIEFKYLSDLIQFFAAASKEEFAAQYEERLDVSSLIDYFIFINLLSAYDNTGRNVFWGIYNVNLTLLPKFIIQPWDLDGTLGRTWDAIKLDPEKGLGFDNGLILRNDAGSKYFRPFERIMNENPNNIKRRIYERLMAVKDNVLSPANLASKVDYYKRQIVESGALERDRQRWTGYSMYGYANPEEEAEYIKSWYIARLKYLETIFNNF	not soluble
MRSTELIVERGPSRNEAHSMVNESPSNQPQEQFSLEPKWKTAAAPSCESSSEEAAYPKGNEEEEHNEARPRALCRLTDVSTDHYAKNPDSEEEDAQDEAEGDGSHVGAIPAEAATTARPHDLHKAKKKRSNHAKETKAAETLEKPAAPRKKKPMYKVNIGNVERHPPVPEGVNTPRSVMLCKECGVNPSELARYDRKHFQGAGVSDEVAELRYQSYEKRRCARMAQLKPAYKESIKYDLEDPVSVPAAKRKAQAAEEAPARPAAAAQAAAPPPKLLDEEAQMQRQFEAQHQRLLEQERRKTVTSGYDSDGRRRSPPRAGHFYGASVRSVGSAKSPGRYSRNTSVGARPTVDQPYSAAKIYSASIVESRPLTQSEVIMIDEINEREAHRIDTQERAFVIQENKQLMHVERELIRERLACVRVQKNAEDREKMQQKMHKRNEARQNVVAKRRKKLEAERQARIQDSVAEKAARCHTTNPYASLMLRQMSGFSTCHTSSSFPSQGADVSASREQSSEAE	soluble
MGSDKIHHHHHHMSSIFSLEGIKALGPDELREIQRGGLPVVIHFGDAGDDFLAYVSDHATEWLGTDAIRTVDARRFMEDKEWKAPMLTSEVLPKTIIVDPARWGDSFADKVAALDMTAFYSSNPVLLDYNDAFEVVFLFSTFYHHTMVSVTDFCNLRCRGCSFHGDDSRYDFAASRGKTERQELKEEDYYLFLDQRKPGDDLLFCGTGELFVSKKAMPYIREAIRRGLHVRILTNGMLVDDKVARELVELGVGAVLFSIDGHTKEIVESIRLGADYDRILANLRNLMRVRDEAGSGMIIGVQSGWFDEVKTRKDEILEFWKEFGIDTFSFFAEQVGWFQCIPMHEDKVMPVKTHACFNSLITPVLMTNGYVAPCTGNYQAEWSSLSSSWMKHISEAPFDEIIRYYRKMRTDPASPYRQRCAMCIGRLSTYVNSEYVSAYAEGYRFSERKSDKEAAFVKFSPQDEKTGFTLKKLWNRLLRR	not soluble
NSYVFDLPHNQHKLTKFAHKGILFNSVHLERDGTLKFPQLKQSKQKPAVSSELKTAIKRIKAGYKKVKPNYKKRQKQQIAELFAKRKQRRSWKNF	not soluble
MGGSHHHHHHGMASALTDQTYCDRLVQDTPFLTGHGRLSEQQVDRIILQLNRYYPQILTNKEAEKFRNPKASLRVRLCDLLSHLQRSGERDCQEFYRALYIHAQPLHSRLPSRHALQNSDCTELDSGSQSGELSNRGPMSFLAGLGLAVGLALLLYCYPPDPKGLPGTRRVLGFSPVIIDRHVSRYLLAFLADDLGGL	not soluble
HHHHHSSGLVPRGSHMTNPAYFPQLSQLDVSGEMESTYEDIRLTLRVPWVAFGCRVLATFPGYLPLAWRRSAEALITRYAEQAADELRERSLLNIGPLPNLKERLYAAGFDDGEIEKVRRVLYAFNYGNPKYLLLITALSESMQMRPVGGAEVSSELRASIPKGHPKGMDPLLPLVDATKASTEVQGLLKRVADLHYHHGPASDFQALANWPKVLQIVTDEVLAPVARTEQYDAKSRELVTRARELVRGLPGSAGVQRSELMSMLTPNELAGLTGVLFMYQRFIADITISIIHITECLDGAEAASKSPFPI	soluble
NLLIQELCQAVINHFVRYLNINLGALYVSNEVESSLHLLSGYALSKAKKEMPAIRFGDGIVGQVAQERRLLVLENIPGENFVLESGLGDIQPSHILIAPILYQERMLGVIELGSLEPFTENHKEYMSHVMDSIAIAITSAHAREKVRELLEETQR	not soluble
MGEAETPSFEMTWSSTTSSGYCSQEDSDSELEQYFTARTSLVRRPRRDQDEAVERETPDLSQAETEQKIKDYNGQINSNLFMSLNKDGSYTGFIKVQLKLVRPVSVPSSKKPPSLQDARRGTGRSTAVKRRTSFYLPKDAIKHLHVLSRTRAREVIEALLRKFMVVDDPRKFALFERTERHGQVYLRKLSDDEQPLKLRLLAGPSEKALSFVLKENDSGEVNWDAFSMPELHNFLRILQREEEEHLRQILQKYSRCRQKIQEALHACPLG	soluble
MGSDKIHHHHHHMIRVIDCTLREGCQARQCSFDSAQSVQLAREIAALGVDMIECGHPRISADERERVRAVVAAVSTPVLAHARARREDIDAVLETGAQWVGLFASINAISLETKFKGMNREEVLELFHDAIRYARERGLRVRATVEDAARTSVSDLVSMIATARDAGADRICFADSVGILLPDETFDVLSLLRHEFPDVVFEYHVHNDRGLALGNTLAAIQAGVQWHSASCNGIGERAGITDTFQLLTLLHTKFAADRFNLKNVLAVSELVEAHSRIKRSPMHPVVGENAFVHVARLHQLAMQENQDAYSAFDPELINGRVSLQRYTPMHRQSLFLTPFEKSASELKYHRHGPGKRFVMLDRRLLDGSPFYFIARQFHDVGDGGPGHVDSHVHNCDSVFLFLGSDEDYRGLEVEVLLGGQLRRLQSPASVFIPAGVEHSYRYLGGSGTYINFVHKGDYHESLLEITQ	not soluble
MTIKLVATDMDGTFLDGNGRFDMDRLKSLLVSYKEKGIYFAVASGRGFLSLEKLFAGVRDDIIFIAENGSLVEYQGQDLYEATMSRDFYLATFEKLKTSPYVDINKLLLTGKKGSYVLDTVDETYLKVSQHYNENIQKVASLEDITDDIFKFTTNFTEETLEDGEAWVNENVPGVKAMTTGFESIDIVLDYVDKGVAIVELVKKLGITMDQVMAFGDNLNDLHMMQVVGHPVAPENARPEILELAKTVIGHHKERSVIAYMEGL	not soluble
MQHPTTKYVKLSFALIFLFNIASASIFSDDVTEATSSPDTTTTAVAIRAKRQCGGMGGCCGGMSGCGCGSMGMCGQTCCPSAPPPCSCGTPGCMQCVQQTVLVPVTTTTCCKCCQPVCTNACTNGGGCSCGCTRGGCSRKRRSLLAIASEEMSKRGDVMV	not soluble
MSLSELSVLSAETAISFHEMDLEILKESQKALREEAGGKEEVEETVENPNPIVFIAVDDQNLPNGEEEDSFIFEKLQFRVKQVMENGTRRVYLSVQATTPAEWQLLVQLRIKTGCQSNILNVVDKDVYKFDSFSYPLNVEIQNSDVKFLKFEMRVLNLMYLDLPTFEEGDEVIEFDDGSRIRVHSNILSLLSDYLGKSEKEYASRTDCPAIKATCSEKEAFLELLYQAYPTRRPIFASFRRLTAGAVGYKCDNLIYQLSKHLIDYNYRPMTFLQRFQAAIENRLEPAISELAFRAALDGTWNQMIQSGFEPENFCGRQVYTKIVCPAILLARNAKPDATTLKKPENNLKFIELEEGDTTKSAILFRGTIFYINSGILAAHGKEMLCIGQNGEYIARYTAEFHRECARGDLIPGEVLVQLLTYMHPMGEVPHPDMIRACIVFAFDHGWNIVKENLENEFEPPITPDEYMSQLMFGDKFDLKNLLRVNIQRAESSCRELAEVLERHGKLKILKDRTHEGIMDRMCSGWGLNPMVNRLSTRFPTTFHHRTVNLQRGKAVVVGEGRAVDTLNSLASDHAFGEPTELIVVD	not soluble
